The results in this text go back to patent CN112409487A (NINGBO SAIPO BIOTECHNOLOGY CO LTD, dated 2021).

For the assay, the target named is T1, 人可溶性转铁蛋白受体校准品 (human, UniProt P02786 101-760, limits assumed).
T1 construct: also called sTfR校准品
The assay is described as follows: double-antibody sandwich latex immunoturbidimetry on the calibrator, OD570nm.

T1 sequence (P02786 101-760 limits assumed): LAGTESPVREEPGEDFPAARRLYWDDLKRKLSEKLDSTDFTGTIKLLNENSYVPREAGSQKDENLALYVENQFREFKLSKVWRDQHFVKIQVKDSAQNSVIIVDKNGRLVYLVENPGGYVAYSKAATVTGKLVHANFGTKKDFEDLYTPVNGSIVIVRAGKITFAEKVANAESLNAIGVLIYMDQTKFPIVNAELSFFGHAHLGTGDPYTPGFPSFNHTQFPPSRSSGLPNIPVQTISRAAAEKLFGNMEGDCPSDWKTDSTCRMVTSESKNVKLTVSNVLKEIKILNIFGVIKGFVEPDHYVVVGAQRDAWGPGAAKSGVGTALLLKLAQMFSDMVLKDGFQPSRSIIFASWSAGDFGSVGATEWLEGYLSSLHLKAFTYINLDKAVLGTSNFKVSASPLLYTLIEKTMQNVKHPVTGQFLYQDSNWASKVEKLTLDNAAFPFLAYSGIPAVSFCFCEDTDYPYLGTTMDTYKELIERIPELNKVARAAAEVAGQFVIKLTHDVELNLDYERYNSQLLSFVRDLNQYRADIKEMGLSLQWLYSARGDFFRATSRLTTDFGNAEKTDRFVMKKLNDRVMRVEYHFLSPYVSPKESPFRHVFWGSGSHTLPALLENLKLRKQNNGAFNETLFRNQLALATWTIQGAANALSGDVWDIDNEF

B1: 鼠单克隆抗体8E11 (antibody, V domains shown)
VH: QVQLQQSGAELVRPGTSVKISCKASGYAFTNYWLGWVKQRPGRGLEWIGDIFPGSSNTYYNEKFKGKASLTADKSSSTAYMHLSSLTSEDSAVYFCARVKDYYAMGYWGQGTSVTVSS
VL: ENVLTQSPAIMSASPGEKVTMTCSASSSVSYMNWYQQKSITSPKLWIYDTFKLASGVPGRFSGSGSGNSYSLTISSMEAEDVATYYCFQGSGYPYTFGGGTKLEIK
notes: Mouse hybridoma monoclonal antibody, purified from ascites on protein G and detected with goat anti-mouse IgG; It was coupled to latex particles in the turbidimetric assay; also called 第一单克隆抗体
As for B1, the binding result is on record as “binds”.
